Target: purified FMNL2 N terminus (FMNL2N, aa 2-379) (human (from the printed UniProt …, UniProt Q96PY5-3 2-379))
Experiment: ITC

Sequence of purified FMNL2 N terminus (FMNL2N, aa 2-379) (human (Q96PY5 2-379): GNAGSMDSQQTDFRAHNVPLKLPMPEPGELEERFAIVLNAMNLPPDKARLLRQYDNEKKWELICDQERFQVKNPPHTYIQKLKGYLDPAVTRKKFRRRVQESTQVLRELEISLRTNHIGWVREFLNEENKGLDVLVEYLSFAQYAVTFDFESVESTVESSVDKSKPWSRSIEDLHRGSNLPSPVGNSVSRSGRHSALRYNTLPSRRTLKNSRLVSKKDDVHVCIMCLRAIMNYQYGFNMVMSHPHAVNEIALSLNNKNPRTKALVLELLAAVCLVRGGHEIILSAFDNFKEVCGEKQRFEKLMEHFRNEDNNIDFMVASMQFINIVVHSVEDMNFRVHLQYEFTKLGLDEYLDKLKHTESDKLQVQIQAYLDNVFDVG

B1: Cdc42 (nucleotide-loaded, for ITC) (natural protein)
chain: not shown
B1 showed a Kd of 3.13 ± 0.38 µM and a dH of -5.33 ± 0.16 kcal/mol.

— article PMC3765947 (Current Biology, 2012)
